Patent US20250297020A1 (ADALTA, published 2025)
Several values for one entry are separate records, joined by “and”; a condition that tells them apart may be missing. Equal values may be shown once.

Assays:
[1] = target: T1, human RANK-L (Receptor Activator of Nuclear factor Kappa B Ligand), recombinant (human, UniProt O14788 140-317, limits assumed); assay: cell-based or functional assay
T1 sequence (looked up): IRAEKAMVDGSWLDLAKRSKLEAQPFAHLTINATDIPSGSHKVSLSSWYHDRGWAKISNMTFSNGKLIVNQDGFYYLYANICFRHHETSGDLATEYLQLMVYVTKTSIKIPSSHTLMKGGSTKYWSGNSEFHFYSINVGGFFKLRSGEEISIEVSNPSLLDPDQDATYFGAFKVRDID

[2] = target: T1, human RANK-L (Receptor Activator of …); assay: SPR (Biacore), human RANK-L immobilised on the chip, ADR03 injected
Protocol: (§1) Measurement of the kinetics of ADR03 binding to human RANK-L was carried out by immobilising human RANKL onto a research grade CMS sensor chip using standard amine coupling. Each of three surfaces is first activated for seven minutes using a 1:1 mixture of […] N-hydroxysuccinimide (NHS) and […] 1-ethyl-3-(3-dimethylaminopropyl)-carbodimide (EDC). Then, the RANK-L sample is diluted 1- to 50-fold in 10 mM sodium acetate, pH 4.0, and exposed to the activated chip surface for different lengths of time (ten seconds to two minutes) to create three different density surfaces of RANK-L. Each surface is then blocked with a seven-minute injection of 1 M ethanolamine, pH 8.2. RANK-L is diluted 100-fold and injected for different amounts of time to be captured at three different surface densities (60 RU, 45 RU, 12 RU; Response Unit (RU) is termed by Biacore and relates to target molecule per surface area) onto a streptavidin-containing sensor chip. The experiments can be performed on a Biacore® 2000 or T100 optical biosensor. ADR03 is supplied at approximately 100 μg/mL and tested in a 3-fold dilution series in Sample Running Buffer over the three RANK-L surfaces. Each of ADR03 concentrations (five, 3-fold dilutions of RANK-L-coupled sensors) is tested three times to assess reproducibility of the assay. Each test is injected at a flow rate of 100 μL/minute for 60 seconds, followed by a three-minute dissociation phase. Bound ADR03 can then be removed using a five-second pulse with sensor regeneration solution. All data is usually collected at a temperature-controlled 20° c. The kinetic responses for the ADR03 injections can be analyzed using the non-linear least squares analysis program CLAMP (Myszka, D. G. and Morton, T. A. (1998) Trends Biochem. Sci., 23: 149-150). Calculations of multivalent interactions can be determined using a model to fit the avidity of the bivalent interaction of ADR03 with RANK-L (Drake et al. (2004) Anal. Biochem., 328: 35-43; and Muller et al., (1998) Anal. Biochem. 261: 149-158).

[3] = target: T1, human RANK-L (Receptor Activator of …); assay: SPR (Biacore) sensorgrams with fitted curves; panel headed "pAb+RANKL"; value from the column "KD" of the table drawn in the panel
Protocol: as §1, with “The experiments can be performed on a Biacore® 2000 or T100 optical biosensor. ADR03 is supplied at approximately 100 μg/mL and tested in a 3-fold dilution series in Sample Running Buffer over the three RANK-L surfaces. Each of ADR03 concentrations (five, 3-fold dilutions of RANK-L-coupled sensors) is tested three times to assess reproducibility of the assay. Each test is injected at a flow rate of 100 μL/minute for 60 seconds, followed by a three-minute dissociation phase. Bound ADR03 can then be removed using a five-second pulse with sensor regeneration solution. All data is usually collected at a temperature-controlled 20° c.” left out

B1: ADR03 i-body (RANK-L binding i-body on the NCAM domain 1 scaffold) (designed binder)
chain: LQVDIVPSQGEISVGESKFFLCQVAGAHTVESISWFSPNGEKLTPNQQRISVVWNDDSSSTLTIYNANIDDAGIYKCVVVASARRGFGWVYPHEATVNVKIFQ
notes: I-bodies were expressed in E. coli with FLAG or penta-His tags; also called ADR3; i-body ADR03
IC50 of inhibition of hRANK-L-induced production of TRAP positive multinucleated cells (RAW264.7) [1]: 100 ng/mL and 3 nM | Kd [2]: 13.2 nM | koff [2]: 0.00029 s⁻¹ | kon [2]: ~23000 M⁻¹ s⁻¹ | Kd [3]: 13.2 nM
